The text below walks through data of patent publication US20230250154A1 (CYTONICS, published 2023).

The labels stand for the following.
T1: ADAMTS4 (human, UniProt O75173 213-685, limits assumed)
T1 sequence (looked up): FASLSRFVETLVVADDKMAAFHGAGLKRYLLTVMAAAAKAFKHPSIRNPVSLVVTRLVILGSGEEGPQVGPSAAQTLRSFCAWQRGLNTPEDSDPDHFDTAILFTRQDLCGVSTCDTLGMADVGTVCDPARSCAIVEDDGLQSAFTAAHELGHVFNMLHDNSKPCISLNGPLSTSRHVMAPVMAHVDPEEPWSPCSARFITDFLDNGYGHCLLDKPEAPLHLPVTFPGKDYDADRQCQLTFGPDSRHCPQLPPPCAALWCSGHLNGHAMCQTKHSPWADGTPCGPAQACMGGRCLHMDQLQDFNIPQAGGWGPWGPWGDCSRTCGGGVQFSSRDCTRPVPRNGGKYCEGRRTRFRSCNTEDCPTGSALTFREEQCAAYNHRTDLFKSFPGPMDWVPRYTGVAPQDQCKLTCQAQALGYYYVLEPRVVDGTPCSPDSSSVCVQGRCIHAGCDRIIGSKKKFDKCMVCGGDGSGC

T2: ADAMTS5 (human, UniProt Q9UNA0 262-622, limits assumed)
T2 sequence (looked up): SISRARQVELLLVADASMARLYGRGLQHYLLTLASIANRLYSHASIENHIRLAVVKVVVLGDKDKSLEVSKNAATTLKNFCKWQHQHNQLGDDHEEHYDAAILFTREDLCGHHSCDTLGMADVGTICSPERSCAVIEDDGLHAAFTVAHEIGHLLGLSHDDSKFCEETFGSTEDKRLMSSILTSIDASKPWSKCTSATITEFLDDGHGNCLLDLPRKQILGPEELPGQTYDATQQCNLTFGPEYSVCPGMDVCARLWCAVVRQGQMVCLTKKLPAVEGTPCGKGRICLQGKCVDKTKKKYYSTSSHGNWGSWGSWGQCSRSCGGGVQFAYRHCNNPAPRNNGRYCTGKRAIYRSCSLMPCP

B1: Variant A2M, bait region SEQ ID NO 102 (other)
chain: SVSGKPQYMVLVPSLLHTETTEKGCVLLSYLNETVTVSASLESVRGNRSLFTDLEAENDVLHCVAFAVPKSSSNEEVMFLTVQVKGPTQEFKKRTTVMVKNEDSLVFVQTDKSIYKPGQTVKFRVVSMDENFHPLNELIPLVYIQDPKGNRIAQWQSFQLEGGLKQFSFPLSSEPFQGSYKVVVQKKSGGRTEHPFTVEEFVLPKFEVQVTVPKIITILEEEMNVSVCGLYTYGKPVPGHVTVSICRKYSDASDCHGEDSQAFCEKFSGQLNSHGCFYQQVKTKVFQLKRKEYEMKLHTEAQIQEEGTVVELTGRQSSEITRTITKLSFVKVDSHFRQGIPFFGQVRLVDGKGVPIPNKVIFIRGNEANYYSNATTDEHGLVQFSINTTNVMGTSLTVRVNYKDRSPCYGYQWVSEEHEEAHHTAYLVFSPSKSFVHLEPMSHELPCGHTQTVQAHYILNGGTLLGLKKLSFYYLIMAKGGIVRTGTHGLLVKQEDMKGHFSISIPVKSDIAPVARLLIYAVLPTGDVIGDSAKYDVENCLANKVDLSFSPSQSLPASHAHLRVTAAPQSVCALRAVDQSVLLMKPDAELSASSVYNLLPEKDLTGFPGPLNDQDDEDCINRHNVYINGITYTPVSSTNEKDMYSFLEDMGLKAFTNSKIRKPKMCPQLEQYEMHGPEGLRVGGYPGSSRGFYESDVMGRGHARLVHVEEPHTKLLRKYFPETWIWDLVVVNSAGVAEVGVTVPDTITEWKAGAFCLSEDAGLGISSTASLRAFQPFFVELTMPYSVIRGEAFTLKATVLNYLPKCIRVSVQLEASPAFLAVPVEKEQAPHCICANGRQTVSWAVTPKSLGNVNFTVSAEALESQELCGTEVPSVPEHGRKDTVIKPLLVEPEGLEKETTFNSLLCPSGGEVSEELSLKLPPNVVEESARASVSVLGDILGSAMQNTQNLLQMPYGCGEQNMVLFAPNIYVLDYLNETQQLTPEIKSKAIGYLNTGYQRQLNYKHYDGSYSTFGERYGRNQGNTWLTAFVLKTFAQARAYIFIDEAHITQALIWLSQRQKDNGCFRSSGSLLNNAIKGGVEDEVTLSAYITIALLEIPLTVTHPVVRNALFCLESAWKTAQEGDHGSHVYTKALLAYAFALAGNQDKRKEVLKSLNEEAVKKDNSVHWERPQKPKAPVGHFYEPQAPSAEVEMTSYVLLAYLTAQPAPTSEDLTSATNIVKWITKQQNAQGGFSSTQDTVVALHALSKYGAATFTRTGKAAQVTIQSSGTFSSKFQVDNNNRLLLQQVSLPELPGEYSMKVTGEGCVYLQTSLKYNILPEKEEFPFALGVQTLPQTCDEPKAHTSFQISLSVSYTGSRSASNMAIVDVKMVSGFIPLKPTVKMLERSNHVSRTEVSSNHVLIYLDKVSNQTLSLFFTVLQDVPVRDLKPAIVKVYDYYETDEFAIAEYNAPCSKDLGNADYKDDDDKGASHHHHHH
B2: Variant A2M, bait region SEQ ID NO 103 (other)
chain: SVSGKPQYMVLVPSLLHTETTEKGCVLLSYLNETVTVSASLESVRGNRSLFTDLEAENDVLHCVAFAVPKSSSNEEVMFLTVQVKGPTQEFKKRTTVMVKNEDSLVFVQTDKSIYKPGQTVKFRVVSMDENFHPLNELIPLVYIQDPKGNRIAQWQSFQLEGGLKQFSFPLSSEPFQGSYKVVVQKKSGGRTEHPFTVEEFVLPKFEVQVTVPKIITILEEEMNVSVCGLYTYGKPVPGHVTVSICRKYSDASDCHGEDSQAFCEKFSGQLNSHGCFYQQVKTKVFQLKRKEYEMKLHTEAQIQEEGTVVELTGRQSSEITRTITKLSFVKVDSHFRQGIPFFGQVRLVDGKGVPIPNKVIFIRGNEANYYSNATTDEHGLVQFSINTTNVMGTSLTVRVNYKDRSPCYGYQWVSEEHEEAHHTAYLVFSPSKSFVHLEPMSHELPCGHTQTVQAHYILNGGTLLGLKKLSFYYLIMAKGGIVRTGTHGLLVKQEDMKGHFSISIPVKSDIAPVARLLIYAVLPTGDVIGDSAKYDVENCLANKVDLSFSPSQSLPASHAHLRVTAAPQSVCALRAVDQSVLLMKPDAELSASSVYNLLPEKDLTGFPGPLNDQDDEDCINRHNVYINGITYTPVSSTNEKDMYSFLEDMGLKAFTNSKIRKPKMCPQLEQYEMHGPEGLRVGGARGLEGGFAGLPNGGEEGVEEGKLRKYFPETWIWDLVVVNSAGVAEVGVTVPDTITEWKAGAFCLSEDAGLGISSTASLRAFQPFFVELTMPYSVIRGEAFTLKATVLNYLPKCIRVSVQLEASPAFLAVPVEKEQAPHCICANGRQTVSWAVTPKSLGNVNFTVSAEALESQELCGTEVPSVPEHGRKDTVIKPLLVEPEGLEKETTFNSLLCPSGGEVSEELSLKLPPNVVEESARASVSVLGDILGSAMQNTQNLLQMPYGCGEQNMVLFAPNIYVLDYLNETQQLTPEIKSKAIGYLNTGYQRQLNYKHYDGSYSTFGERYGRNQGNTWLTAFVLKTFAQARAYIFIDEAHITQALIWLSQRQKDNGCFRSSGSLLNNAIKGGVEDEVTLSAYITIALLEIPLTVTHPVVRNALFCLESAWKTAQEGDHGSHVYTKALLAYAFALAGNQDKRKEVLKSLNEEAVKKDNSVHWERPQKPKAPVGHFYEPQAPSAEVEMTSYVLLAYLTAQPAPTSEDLTSATNIVKWITKQQNAQGGFSSTQDTVVALHALSKYGAATFTRTGKAAQVTIQSSGTFSSKFQVDNNNRLLLQQVSLPELPGEYSMKVTGEGCVYLQTSLKYNILPEKEEFPFALGVQTLPQTCDEPKAHTSFQISLSVSYTGSRSASNMAIVDVKMVSGFIPLKPTVKMLERSNHVSRTEVSSNHVLIYLDKVSNQTLSLFFTVLQDVPVRDLKPAIVKVYDYYETDEFAIAEYNAPCSKDLGNADYKDDDDKGASHHHHHH
B3: Variant A2M, bait region SEQ ID NO 101 (other)
chain: SVSGKPQYMVLVPSLLHTETTEKGCVLLSYLNETVTVSASLESVRGNRSLFTDLEAENDVLHCVAFAVPKSSSNEEVMFLTVQVKGPTQEFKKRTTVMVKNEDSLVFVQTDKSIYKPGQTVKFRVVSMDENFHPLNELIPLVYIQDPKGNRIAQWQSFQLEGGLKQFSFPLSSEPFQGSYKVVVQKKSGGRTEHPFTVEEFVLPKFEVQVTVPKIITILEEEMNVSVCGLYTYGKPVPGHVTVSICRKYSDASDCHGEDSQAFCEKFSGQLNSHGCFYQQVKTKVFQLKRKEYEMKLHTEAQIQEEGTVVELTGRQSSEITRTITKLSFVKVDSHFRQGIPFFGQVRLVDGKGVPIPNKVIFIRGNEANYYSNATTDEHGLVQFSINTTNVMGTSLTVRVNYKDRSPCYGYQWVSEEHEEAHHTAYLVFSPSKSFVHLEPMSHELPCGHTQTVQAHYILNGGTLLGLKKLSFYYLIMAKGGIVRTGTHGLLVKQEDMKGHFSISIPVKSDIAPVARLLIYAVLPTGDVIGDSAKYDVENCLANKVDLSFSPSQSLPASHAHLRVTAAPQSVCALRAVDQSVLLMKPDAELSASSVYNLLPEKDLTGFPGPLNDQDDEDCINRHNVYINGITYTPVSSTNEKDMYSFLEDMGLKAFTNSKIRKPKMCPQLEQYEMHGPEGLRVGEEEGGGFYESDVMGRGHARLVHVEEPHTKLRKYFPETWIWDLVVVNSAGVAEVGVTVPDTITEWKAGAFCLSEDAGLGISSTASLRAFQPFFVELTMPYSVIRGEAFTLKATVLNYLPKCIRVSVQLEASPAFLAVPVEKEQAPHCICANGRQTVSWAVTPKSLGNVNFTVSAEALESQELCGTEVPSVPEHGRKDTVIKPLLVEPEGLEKETTFNSLLCPSGGEVSEELSLKLPPNVVEESARASVSVLGDILGSAMQNTQNLLQMPYGCGEQNMVLFAPNIYVLDYLNETQQLTPEIKSKAIGYLNTGYQRQLNYKHYDGSYSTFGERYGRNQGNTWLTAFVLKTFAQARAYIFIDEAHITQALIWLSQRQKDNGCFRSSGSLLNNAIKGGVEDEVTLSAYITIALLEIPLTVTHPVVRNALFCLESAWKTAQEGDHGSHVYTKALLAYAFALAGNQDKRKEVLKSLNEEAVKKDNSVHWERPQKPKAPVGHFYEPQAPSAEVEMTSYVLLAYLTAQPAPTSEDLTSATNIVKWITKQQNAQGGFSSTQDTVVALHALSKYGAATFTRTGKAAQVTIQSSGTFSSKFQVDNNNRLLLQQVSLPELPGEYSMKVTGEGCVYLQTSLKYNILPEKEEFPFALGVQTLPQTCDEPKAHTSFQISLSVSYTGSRSASNMAIVDVKMVSGFIPLKPTVKMLERSNHVSRTEVSSNHVLIYLDKVSNQTLSLFFTVLQDVPVRDLKPAIVKVYDYYETDEFAIAEYNAPCSKDLGNADYKDDDDKGASHHHHHH

The target in one assay is T1, ADAMTS4. Description: cell-based or functional assay.
For B1, the “Protease Inhibition (% of WT)” value was 187 % of WT.

For B2, the “Protease Inhibition (% of WT)” value was 168 % of WT.

For B3, the “Protease Inhibition (% of WT)” value was 168 % of WT.

The next assay has as its target T2, ADAMTS5. Description: cell-based or functional assay.
Turning to B1, the “Protease Inhibition (% of WT)” value is 354 % of WT.

For B2, the “Protease Inhibition (% of WT)” value is 309 % of WT.

In the case of B3, the “Protease Inhibition (% of WT)” value was 97 % of WT.

The target of another assay is MMP13 (human, UniProt P45452 104-471, limits assumed). Description: cell-based or functional assay.
For the molecule B1, the “Protease Inhibition (% of WT)” value is 127 % of WT.

Consider B2, for which the “Protease Inhibition (% of WT)” value was 52 % of WT.

On to B3, for which the “Protease Inhibition (% of WT)” value is 124 % of WT.
